The RNAGym collection of RNA variant scans (doi:10.7554/elife.90254)

B1: OR4K15 (parent)
chain: GUUAACGGUCAUAGGCCAUGGAAACUAGGAGCACCAUUUCGCUGCCAGUGAAGAAAUGAACAAAGAAAAUCUGGGCCAGGCAGGCAUCAAAAGAAAUAGUCUUGCGCUCAACCAGAAAGUCUGUAAUCAUUUUAAGGGUA

Variants of: B1
Assay: self-cleavage, relative activity (ratio to wild type); higher = more cleavage; in vitro, sequencing; the parent is a self-cleaving ribozyme

| Variant | self-cleavage |
| --- | --- |
| U49G A54G | 1.61 |
| U49G U139A | 1.7 |
| U49G U139G | 1.58 |
| U49G U139C | 1.49 |
| U49G A60G | 0.64 |
| U49A A90G | 0.81 |
| U49C U122G | 1.54 |
| U49C U122A | 1.33 |
| U49C A111G | 0.02 |
| U49C A67G | 1.2 |
| U49A U139C | 1.97 |
| U49C A89G | 1.26 |
| U49C A89C | 1.36 |
| A51C U72A | 0.19 |
| A51G A56G | 1.22 |
| U49A U72G | 0.14 |
| U49A U57G | 0.46 |
| U49A U57C | 1.11 |
| U49A U102A | 0.95 |
| G50A G104A | 0.1 |
| U49C G104A | 0.04 |
| U49G A118G | 1.14 |
| U49A A67G | 1.13 |
| U49A A82G | 0.52 |

| Variant | self-cleavage |
| --- | --- |
| U49C C105A | 0.03 |
| U49C A94G | 1.44 |
| U49C G137A | 1.95 |
| U49C G137U | 2.29 |
| U49A A64G | 1.2 |
| U49A A135G | 1.08 |
| U49C C109U | 0.18 |
| U49C A118G | 0.35 |
| U49C A118U | 0.62 |
| U49A A116G | 0.3 |
| U49C U57C | 0.57 |
| U49C U57A | 1.03 |
| U49G U122A | 1.35 |
| U49G U122C | 0.39 |
| U49A U87C | 0.22 |
| U49A U87A | 1.78 |
| G50U A114U | 0.08 |
| U49C U120C | 0.52 |
| U49C U120A | 1.64 |
| U49C U139A | 1.15 |
| A51G A55C | 0.42 |
| U49C A126G | 1.26 |
| U49C G74A | 0.09 |
| A51C U57G | 1.26 |

| Variant | self-cleavage |
| --- | --- |
| A51G | 1.36 |
| A51C | 1.43 |
| U49G U102C | 1.95 |
| U49C U97A | 2.12 |
| U49C G75A | 0.04 |
| U49A U122A | 1.32 |
| U49A U122C | 0.56 |
| G50A G138A | 1.51 |
| U49C U132A | 1.65 |
| U49C U108A | 0.01 |
| G50A | 1.68 |
| G50U | 1.11 |
| G50C | 1.54 |
| G50A A63G | 1.21 |
| U49A A60G | 1.32 |
| U49C A56C | 1.25 |
| U49C A56G | 1.57 |
| U49A A78U | 0.33 |
| U49C A95G | 1 |
| U49C A86G | 1.03 |
| U49C A86U | 1.68 |
| U49C A60G | 1.24 |
| U49C U72A | 0.15 |
| U49A A129G | 0.63 |

| Variant | self-cleavage |
| --- | --- |
| U49A A95G | 1.76 |
| U49A A140G | 1.41 |
| U49A A51G | 1.02 |
| A51C G99A | 0.94 |
| U49G A90G | 0.75 |
| U49A A63G | 1.46 |
| U49G A92G | 0.7 |
| U49A A114G | 0.25 |
| G50U A51U | 1.95 |
| U49C U130A | 0.28 |
| U49C G119A | 1.6 |
| U49C U124C | 0.71 |
| U49G A69G | 0.88 |
| A51C A78G | 0.24 |
| G50A U108A | 0.01 |
| U49A A62U | 1.92 |
| A51G A59U | 1.74 |
| U49C A134U | 1.2 |
| U49A A56G | 1.74 |
| G50U A66U | 2.16 |
| U49C A66G | 1.55 |
| A51C U124C | 0.98 |
| U49C G138A | 1.86 |
| U49A G75C | 0.07 |

| Variant | self-cleavage |
| --- | --- |
| G50C A116G | 0.9 |
| U49A A86G | 1.19 |
| U49C A52G | 1.16 |
| U49C A129G | 1.82 |
| U49C A59C | 0.9 |
| U49C A59G | 0.7 |
| U49C A59U | 1.24 |
| G50A A60C | 1.9 |
| U49A C61U | 1.38 |
| U49G U132C | 1.1 |
| U49C A51C | 0.34 |
| U49C A51G | 0.9 |
| U49C A51U | 0.99 |
| U49C A90G | 0.94 |
| G50A U133C | 1.88 |
| U49A A111C | 0.01 |
| U49A A111G | 0.01 |
| A51C A95G | 1.65 |
| A51C A95U | 1.79 |
| U49A A89G | 0.47 |
| A51C U131C | 1.28 |
| G50U U124A | 0.91 |
| U49C A114C | 0.03 |
| U49C A114G | 0.42 |

| Variant | self-cleavage |
| --- | --- |
| A51C U127C | 1.02 |
| A51C U127A | 2.59 |
| U49G A68G | 1.76 |
| U49C C121G | 2.4 |
| U49C A135U | 2.28 |
| U49C A55U | 1.67 |
| U49G A116G | 0.64 |
| G50A U87A | 1.75 |
| U49A A126U | 1.59 |
| U49C A64G | 2.02 |
| U49A U108C | 0.01 |
| U49A U108A | 0.02 |
| U49C U70A | 1.1 |
| A51C A117U | 1.28 |
| U49C U87A | 2.09 |
| U49C A68U | 1.95 |
| U49C A68C | 1.29 |
| U49G A66G | 1.77 |
| U49C U103A | 0.71 |
| U49C C76U | 0.07 |
| U49C G79A | 0.13 |
| U49A G79A | 0.12 |
| U49A A118U | 0.7 |
| U49G U108C | 0.01 |

| Variant | self-cleavage |
| --- | --- |
| U49C A140G | 2.12 |
| U49C A63G | 1.75 |
| U49A A69U | 1.92 |
| U49A U70C | 0.3 |
| G50A A52G | 2.63 |
| U49A U131C | 1.01 |
| G48U U102C | 1.31 |
| G50A A117G | 1.92 |
| U49C A62G | 1.57 |
| U49G | 1.13 |
| U49C | 1.12 |
| U49A | 1.05 |
| U49A A98C | 1.58 |
| A51C A52G | 1.83 |
| A51G A54U | 1.4 |
| U49C A82U | 0.2 |
| U49C A82G | 0.42 |
| A51C A67G | 0.66 |
| U49A G74A | 0.24 |
| U49C C128A | 1.11 |
| U49G A114G | 0.06 |
| U49A A117G | 0.49 |
| G50U A116G | 0.75 |
